Reference: the Immune Epitope Database (IEDB)

How the values were obtained:
HLA-B*18:01 = assay: IEDB peptide-MHC binding, purified MHC/competitive/radioactivity; filed as Kd, often an IC50 or EC50 that approximates it; ≥ and ≤ were set here for values at or beyond the usual limits of such assays
HLA-B*45:01 = assay: as above
HLA-B*40:02 = assay: as above
HLA-B*44:02 [1] = assay: as above
HLA-B*40:01 [2] = assay: as above
HLA-B*44:03 = assay: as above
HLA-A*31:01 = assay: IEDB peptide-MHC binding, purified MHC/direct/fluorescence; filed as Kd, often an IC50 or EC50 that approximates it; ≥ and ≤ were set here for values at or beyond the usual limits of such assays
HLA-A*26:01 [3] = assay: as above
HLA-A*69:01 = assay: as above
HLA-B*27:05 = assay: as above
HLA-A*01:01 = assay: as above
HLA-B*07:02 = assay: as above
HLA-B*08:01 = assay: as above
HLA-B*15:01 [4] = assay: as above
HLA-A*03:01 [5] = assay: as above
HLA-B*44:02 [6] = assay: as above; details: source organism: Salmonella enterica
HLA-A*02:01 = assay: as above
HLA-B*40:01 [7] = assay: as above
HLA-A*11:01 [8] = assay: as above
HLA-B*58:01 = assay: as above
HLA-A*26:01 [9] = assay: IEDB peptide-MHC binding, purified MHC/competitive/fluorescence; filed as Kd, often an IC50 or EC50 that approximates it; ≥ and ≤ were set here for values at or beyond the usual limits of such assays; details: source organism: Yersinia bercovieri ATCC 43970
HLA-B*15:01 [10] = assay: as above; details: source organism: Yersinia bercovieri ATCC 43970
HLA-A*03:01 [11] = assay: as above
HLA-B*39:01 = assay: as above; details: source organism: Pseudomonas aeruginosa PAO1
HLA-A*11:01 [12] = assay: IEDB peptide-MHC binding, purified MHC/competitive/fluorescence; ≥ and ≤ were set here for values at or beyond the usual limits of such assays; details: source organism: Zaire ebolavirus
[13] = source organism: SARS coronavirus Tor2
[14] = source organism: Salmonella enterica
[15] = source organism: Mammarenavirus lassaense
[16] = source organism: Mammarenavirus juninense
[17] = source organism: Lymphocytic choriomeningitis virus (strain Armstrong)
[18] = source organism: Pseudomonas aeruginosa

Q: Which Kd (HLA-B*18:01; [13]) does the source give for AEGSRGGSQA here?
A: ≥ 70.5 µM

Q: What about the Kd (HLA-B*45:01; [13]) of the same sequence?
A: 205 nM

Q: What about the Kd (HLA-B*40:02; [13]) of the same sequence?
A: 18800 nM

Q: And the Kd (HLA-B*44:02 [1]; [13])?
A: 8.48 µM

Q: What about the Kd (HLA-B*40:01 [2]; [13]) of the same sequence?
A: ≥ 27.9 µM

Q: And the Kd (HLA-B*44:03; [13])?
A: 14.6 µM

Q: Which Kd (HLA-B*18:01; [13]) does the source give for KDCVMYASAL here?
A: ≥ 70.5 µM

Q: And the Kd (HLA-B*45:01; [13])?
A: ≥ 70000 nM

Q: What about the Kd (HLA-B*40:02; [13]) of the same sequence?
A: 3290 nM

Q: What about the Kd (HLA-B*44:02 [1]; [13]) of the same sequence?
A: 10.7 µM

Q: And the Kd (HLA-B*40:01 [2]; [13])?
A: ≥ 60.5 µM

Q: And the Kd (HLA-B*44:03; [13])?
A: 11.9 µM

Q: With EEQTDPKTL as the sequence, how does the Kd (HLA-A*31:01; [14]) read?
A: ≥ 20 µM

Q: What about the Kd (HLA-A*26:01 [3]; [14]) of the same sequence?
A: ≥ 20 µM

Q: And the Kd (HLA-A*69:01; [14])?
A: ≥ 20 µM

Q: What about the Kd (HLA-B*27:05; [14]) of the same sequence?
A: ≥ 20 µM

Q: What about the Kd (HLA-A*01:01; [14]) of the same sequence?
A: ≥ 20 µM

Q: And the Kd (HLA-B*07:02; [14])?
A: ≥ 20 µM

Q: And the Kd (HLA-B*08:01; [14])?
A: ≥ 20 µM

Q: What about the Kd (HLA-B*15:01 [4]; [14]) of the same sequence?
A: ≥ 20 µM

Q: What about the Kd (HLA-A*03:01 [5]; [14]) of the same sequence?
A: ≥ 20 µM

Q: What about the Kd (HLA-B*44:02 [6]) of the same sequence?
A: ≥ 20 µM

Q: And the Kd (HLA-A*02:01; [14])?
A: ≥ 20 µM

Q: And the Kd (HLA-B*40:01 [7]; [14])?
A: 7.33 µM

Q: What about the Kd (HLA-A*11:01 [8]; [14]) of the same sequence?
A: ≥ 20 µM

Q: And the Kd (HLA-B*58:01; [14])?
A: ≥ 20 µM

Q: How did the Kd (HLA-B*18:01; [15]) turn out when HDLMKQKCL was run?
A: ≥ 77.5 µM

Q: What about the Kd (HLA-B*45:01; [15]) of the same sequence?
A: 19100 nM

Q: What about the Kd (HLA-B*40:02; [15]) of the same sequence?
A: 1570 nM

Q: What about the Kd (HLA-B*44:02 [1]; [15]) of the same sequence?
A: ≥ 77.9 µM

Q: What about the Kd (HLA-B*40:01 [2]; [15]) of the same sequence?
A: ≥ 40 µM

Q: What about the Kd (HLA-B*44:03; [15]) of the same sequence?
A: ≥ 78.1 µM

Q: Which Kd (HLA-B*18:01; [16]) does the source give for HDWHLDPPF here?
A: 2.39 µM

Q: What about the Kd (HLA-B*45:01; [16]) of the same sequence?
A: ≥ 77700 nM

Q: What about the Kd (HLA-B*40:02; [16]) of the same sequence?
A: 22.1 nM

Q: What about the Kd (HLA-B*44:02 [1]; [16]) of the same sequence?
A: 18.5 µM

Q: What about the Kd (HLA-B*40:01 [2]; [16]) of the same sequence?
A: ≥ 72 µM

Q: And the Kd (HLA-B*44:03; [16])?
A: 7.96 µM

Q: Which results are given for STFVSAARQG?
A: Kd (HLA-B*18:01; [13]): 8.68 µM; Kd (HLA-B*45:01; [13]): 2010 nM; Kd (HLA-B*40:02; [13]): 535 nM; Kd (HLA-B*44:02 [1]; [13]): 0.237 µM; Kd (HLA-B*40:01 [2]; [13]): 8.59 µM; Kd (HLA-B*44:03; [13]): 0.394 µM

Q: How did the Kd (HLA-B*18:01; [13]) turn out when DEDDSEPVL was run?
A: 5.29 µM

Q: And the Kd (HLA-B*45:01; [13])?
A: 17900 nM

Q: What about the Kd (HLA-B*40:02; [13]) of the same sequence?
A: 3170 nM

Q: What about the Kd (HLA-B*44:02 [1]; [13]) of the same sequence?
A: ≥ 38.3 µM

Q: What about the Kd (HLA-B*40:01 [2]; [13]) of the same sequence?
A: 0.137 µM

Q: What about the Kd (HLA-B*44:03; [13]) of the same sequence?
A: 15.8 µM

Q: With YIYDTAFKY as the sequence, how does the Kd (HLA-A*26:01 [9]) read?
A: 264 nM

Q: And the Kd (HLA-B*15:01 [10])?
A: 173 nM

Q: What about the Kd (HLA-A*03:01 [11]; source organism: Yersinia bercovieri ATCC 43970) of the same sequence?
A: 3830 nM

Q: Which Kd (HLA-B*18:01; [17]) does the source give for KDLQRLRSL here?
A: 5.86 µM

Q: And the Kd (HLA-B*45:01; [17])?
A: ≥ 43100 nM

Q: And the Kd (HLA-B*40:02; [17])?
A: 165 nM

Q: And the Kd (HLA-B*44:02 [1]; [17])?
A: ≥ 43.6 µM

Q: What about the Kd (HLA-B*40:01 [2]; [17]) of the same sequence?
A: 4.49 µM

Q: What about the Kd (HLA-B*44:03; [17]) of the same sequence?
A: ≥ 66 µM

Q: Which Kd (HLA-B*18:01; [13]) does the source give for AEVVKLPSRY here?
A: 4.99 µM

Q: And the Kd (HLA-B*45:01; [13])?
A: 9830 nM

Q: What about the Kd (HLA-B*40:02; [13]) of the same sequence?
A: ≥ 22200 nM

Q: What about the Kd (HLA-B*44:02 [1]; [13]) of the same sequence?
A: 0.144 µM

Q: And the Kd (HLA-B*40:01 [2]; [13])?
A: 15 µM

Q: And the Kd (HLA-B*44:03; [13])?
A: 0.0764 µM

Q: For HESFDLAGLF, which Kd (HLA-B*18:01; [16]) is on record?
A: 1.14 µM

Q: And the Kd (HLA-B*45:01; [16])?
A: 1760 nM

Q: What about the Kd (HLA-B*40:02; [16]) of the same sequence?
A: 435 nM

Q: What about the Kd (HLA-B*44:02 [1]; [16]) of the same sequence?
A: 0.175 µM

Q: What about the Kd (HLA-B*40:01 [2]; [16]) of the same sequence?
A: 1.98 µM

Q: And the Kd (HLA-B*44:03; [16])?
A: 0.776 µM

Q: Which Kd (HLA-A*31:01; [18]) does the source give for SEYKAAGYL here?
A: ≥ 20 µM

Q: And the Kd (HLA-A*26:01 [3]; [18])?
A: ≥ 20 µM

Q: And the Kd (HLA-A*69:01; [18])?
A: ≥ 20 µM

Q: What about the Kd (HLA-B*27:05; [18]) of the same sequence?
A: ≥ 20 µM

Q: And the Kd (HLA-A*01:01; [18])?
A: ≥ 20 µM

Q: And the Kd (HLA-B*07:02; [18])?
A: ≥ 20 µM

Q: What about the Kd (HLA-B*08:01; [18]) of the same sequence?
A: ≥ 20 µM

Q: What about the Kd (HLA-B*15:01 [4]; [18]) of the same sequence?
A: ≥ 20 µM

Q: And the Kd (HLA-A*03:01 [5]; [18])?
A: ≥ 20 µM

Q: And the Kd (HLA-A*02:01; [18])?
A: ≥ 20 µM

Q: What about the Kd (HLA-B*40:01 [7]; [18]) of the same sequence?
A: 0.0196 µM

Q: What about the Kd (HLA-A*11:01 [8]; [18]) of the same sequence?
A: ≥ 20 µM

Q: And the Kd (HLA-B*58:01; [18])?
A: ≥ 20 µM

Q: And the Kd (HLA-B*39:01)?
A: ≥ 20 µM

Q: Which results are given for REFLTRNPAW?
A: Kd (HLA-B*18:01; [13]): ≥ 33.4 µM; Kd (HLA-B*45:01; [13]): 569 nM; Kd (HLA-B*40:02; [13]): 23.5 nM; Kd (HLA-B*44:02 [1]; [13]): 0.00402 µM; Kd (HLA-B*40:01 [2]; [13]): 0.0502 µM; Kd (HLA-B*44:03; [13]): 0.00583 µM

Q: For CIYRRFKYGLK, which Kd (HLA-A*03:01 [11]; source organism: Influenza A virus (A/Puerto Rico/8/1934(H1N1))) is on record?
A: 5.6 nM

Q: How did the IC50 (HLA-A*11:01 [12]) turn out when KACLEKVQR was run?
A: ≥ 188 µM

Q: What does the source list for QELGHEDLM?
A: Kd (HLA-B*18:01; [13]): ≥ 31.8 µM; Kd (HLA-B*45:01; [13]): 2740 nM; Kd (HLA-B*40:02; [13]): 3000 nM; Kd (HLA-B*44:02 [1]; [13]): 15.4 µM; Kd (HLA-B*40:01 [2]; [13]): 5.54 µM; Kd (HLA-B*44:03; [13]): 3.71 µM
